Here are results for two substances from patent US20050238723A1, “Method of producing hydroxyalkyl starch derivatives” (priority 2002, published 2005).

For this series, the system named is normocythaemic mouse. The series is described as follows: EPO-bioassay in the normocythaemic mouse system (European Pharmacopeia). It counts as in vivo. The method, then:
Quantitative determination of EPO protein was performed by measuring UV absorption at 280 nm according to the Eur. Phar. (European Pharmacopeia 4, Monography January 2002: 1316: erythropoietin concentrated solution) in a cuvette with 1 cm path length. In addition, EPO was quantitated by applying a RP-HPLC method using a RP-C4 column (Vydac Protein C4, Cat.# 214TP5410, Grace Vydac, Calif., US); the HPLC method was calibrated using the erythropoietin BRP 1 reference standard (European Pharmacopeia, Conseil de l'Europe B.P. 907-F67029, Strasbourg Cedex 1).
The EPO-bioassay in the normocythaemic mouse system indicates was performed according to the procedures described in the European Pharmacopeia; the laboratory that carried out the EPO assay was using the International BRP EPO reference standard preparation. For the HES-modified EPO A2 preparation a mean value for the specific activity of 294,600 units per mg EPO of protein was determined indicating an approximately 3-fold higher specific activity when compared to the International BRP EPO reference standard preparation that was included in the samples sent for activity assays.
In vivo activity determinations are performed in normocythemic mice by measuring the increase of reticulocytes after 4 days after animals received the foreseen dose of EPO or modified EPO forms. Assays are performed using the BRP EPO standard which is calibrated against the WHO EPO standard in the polycythemic mouse assay. EPO samples are diluted in phosphate buffered saline containing 1 mg/ml of bovine serum albumin (Sigma).
0.5 ml of the EPO test solution in Dulbecco's buffered saline (corresponding to an EPO protein equivalent of a 100, 80, 40 or 20 IU/ml of the BRP standard EPO) are infected subcutaneously per animal. Blood samples are taken after 4 days after injection and reticulocytes are stained with acridine orange; quantitation of reticulocytes is performed by flow-cytometry by counting a total of 30,000 blood cells within 5 hours after the blood sample was taken (see Ph. Eur, 2000, Erythropoietini solutio concentrata, 1316, pages 780-785) and European Pharmacopoeia (1996/2000, attachment 2002).

Setting [1] is: sample diluted with 4 volume of PBS.

As for “BRP EPO standard: erythropoietin BRP reference standard of the European Pharmacopeia [reference compound]”, the “Calculated specific activity of EPO sample (basedon A280 nm and RP-HPLC determination)” value is, setting by setting: (sample as such) 86,702 U/mg; under setting [1], 81,200 U/mg.
With “Control EPO K2: control incubation of unmodified EPO-GT-1 with unmodified HES; Q-Sepharose fraction eluted with high salt”, the “Calculated specific activity of EPO sample (basedon A280 nm and RP-HPLC determination)” value reads like this: (sample as such) 121,410 U/mg; under setting [1], 114,100 U/mg.
